Results: publication PMC11178655, “Dosimetry and pharmacokinetics of [^177Lu]Lu-satoreotide tetraxetan in patients with progressive neuroendocrine tumours” (European Journal of Nuclear Medicine and Molecular Imaging, 2024)
Where a SMILES comes first, the peptide text is derived from it. Bridges are numbered along the chain shown (N, C = ends). [ ]: non-standard residue; d: D form. The star is where a group is joined. DOTA = O=C(O)CN1CCN(CC(=O)O)CCN(CC(=O)*)CCN(CC(=O)O)CC1; dPhe(4-NHCONH2) = NC(=O)Nc1ccc(C[C@@H](N)C(=O)O)cc1; Dihydroorotyl(S) = O=C1C[C@@H](C(=O)*)NC(=O)N1; Phe(4-Cl) = N[C@@H](Cc1ccc(Cl)cc1)C(=O)O; Phe(4-NH2) = Nc1ccc(C[C@H](N)C(=O)O)cc1

Assays:
[1] = test system: patients with progressive, SSTR-positive NETs; test: Blood-based bone marrow dosimetry (part A); assay type: in vivo, human; conditions: cycles 1–3, 11 evaluated patients, median
Description: (§1) To generate pharmacokinetic data, blood samples (2 mL) were taken at the stop of infusion (0 min) and 5, 30, and 60 min, 4 h, and 1, 2, 3, and 6 days after the end of each [^177Lu]Lu-satoreotide tetraxetan administration. Urine samples were collected over three intervals within 48 h (0–6 h, 6–24 h, and 24–48 h in part A; 0–4 h, 4–24 h, and 24–48 h in part B) following the first treatment cycle of [^177Lu]Lu-satoreotide tetraxetan. Total activity concentrations in whole blood and urine were determined locally, using a gamma counter calibrated for lutetium-177. In two selected study centres, additional blood samples (2 mL) were collected at 1 min, 4 h, and 1, 2, 3, and 6 days after each [^177Lu]Lu-satoreotide tetraxetan administration to evaluate potential radioactive metabolites in plasma.
Patient-specific dosimetry calculations were performed after each treatment cycle in both parts A and B, using the absorbed dose calculation features of the NUKDOS software for image-based dosimetry calculations. The NUKDOS software was chosen as it allowed for an integral approach to organ dosimetry (including image quantification, time-activity curve-fitting and dosimetry calculation). For the bone marrow, both image-based and blood-based calculations were performed in part A [28, 29]. In part B, only image-based bone marrow dosimetry was performed. […]

[2] = Blood pharmacokinetics (total activity in whole blood, gamma counter); assay type: in vivo, human; conditions: first treatment cycle
Description: as §1

[3] = Radioactive metabolites in plasma; assay type: in vivo, human; conditions: 1 min, 4 h, and 1, 2, 3, and 6 days after each administration, two study centres
Description: as §1

[4] = test system: patients with progressive, SSTR-positive NETs; conditions: cited from earlier work
Excerpt: Here, we fully explore the biodistribution and dosimetry of [^177Lu]Lu-satoreotide tetraxetan in a dosage-finding, phase I/II study (NCT02592707; registered October 30, 2015) of 40 patients with progressive, SSTR-positive NETs treated with [^177Lu]Lu-satoreotide tetraxetan. A plain language summary of this publication can be found in the Supplementary Information. […] Acute haematological toxicity may be a dose-limiting factor for [^177Lu]Lu-satoreotide tetraxetan, and for ^177Lu-labelled somatostatin analogues in general. There is limited correlation between absorbed radiation doses to the bone marrow and development of haematologic toxicity. Therefore, it is important to carefully monitor hematological parameters during ...

[5] = test system: patients with progressive NETs; conditions: cited from earlier work
Excerpt: A novel radiolabelled SSTR antagonist, [^177Lu]Lu-satoreotide tetraxetan (also known as [^177Lu]^177Lu-SSO110, [^177Lu]^177Lu-IPN01072, [^177Lu]^177Lu-OPS201 or [^177Lu]^177Lu-DOTA-JR11), has recently shown a favourable pharmacokinetic and biodistribution profile, as ... || In the present study, we observed tumour ADCs of 5.0 Gy/GBq after cycle 1 and 4.0 Gy/GBq after cycle 3. These tumour ADCs are consistent with previously reported findings from a direct comparison of [^177Lu]Lu-satoreotide tetraxetan and [^177Lu]Lu-DOTA-TATE in the same tumours and patients in a cross-over design, which reported median tumour dose of [^177Lu]Lu-satoreotide tetraxetan of 7.0 Gy/GBq (range: 4.2–29 Gy/GBq), 3.5 times greater than the median tumour dose of [^177Lu]Lu-DOTA-TATE [22]. However, it should be noted that median tumour dose in this pilot study was calculated from a limi ...

[6] = on average, single mean activity 1.0 GBq vs 1.1 GBq, four patients

In the case of C[C@@H](O)[C@@H]1NC(=O)[C@H](CCCCN)NC(=O)[C@@H](Cc2ccc(NC(N)=O)cc2)NC(=O)[C@H](Cc2ccc(NC(=O)[C@@H]3CC(=O)NC(=O)N3)cc2)NC(=O)[C@H](NC(=O)[C@H](Cc2ccc(Cl)cc2)NC(=O)CN2CCN(CC(=O)O)CCN(CC(=O)O)CCN(CC(=O)O)CC2)CSSC[C@@H](C(=O)N[C@H](Cc2ccc(O)cc2)C(N)=O)NC1=O [[^177Lu]Lu-satoreotide tetraxetan, metal not drawn] ({DOTA}-[Phe(4-Cl)][dC][Phe(4-NH2)](Dihydroorotyl(S))[dPhe(4-NHCONH2)]KTC[dY]-NH2; disulfide 2-7 (inferred); C-terminus assumed), the “Cumulative absorbed dose, bone marrow, blood-based method” value [1] is reported as 0.3 Gy, the “Extrapolated area under the concentration-time curve (AUC0–infinity), mean” value [2] is reported as 742.0 ± 303.0 MBq.h/L and the “Terminal blood half-life, mean ± SD” value ([2]; gamma counter) is reported as 110.0 ± 50.1 h. For the same compound, the “Terminal blood half-life, median” value ([2]; gamma counter) was 127 h, the “Blood uptake at 1–5 minutes (peak)” value ([2]; median) was 3.03 % administered activity/L and the “Radioactive metabolites in plasma samples” value [3] was “No radioactive metabolites were observed”. For the same compound, the “Grade 3/4 kidney toxicity” value ([4]; 40 patients) was “no reported grade 3/4 kidney toxicity”, the “Grade 3/4 treatment-related lymphopenia” value ([4]; 40 patients) was 7.5 % of patients and the “Disease control rate at 12 months” value [4] was 94.7%. The Median tumour dose ([5]; cross-over design, 13 lesions in 4 patients) was 7.0 Gy/GBq, the “Tumour absorbed dose compared with [^177Lu]Lu-DOTA-TATE” value [5, 6] was “three-fold higher” and the “Tumour-to-kidney absorbed dose ratio compared with [^177Lu]Lu-DOTA-TATE” value [5, 6] was “two-fold higher”. The “Median tumour dose relative to [^177Lu]Lu-DOTA-TATE” value ([5]; same tumours and patients, cross-over) was 3.5 times.
